PMC9352680, “A comprehensive thermodynamic model for RNA binding by the Saccharomyces cerevisiae Pumilio protein PUF4”
Substitutions are numbered along the chain they refer to. Names and notes keep the numbering of the source.

T1: PUF4 RNA-binding domain (Saccharomyces cerevisiae, UniProt P25339 537-888)
T1 sequence: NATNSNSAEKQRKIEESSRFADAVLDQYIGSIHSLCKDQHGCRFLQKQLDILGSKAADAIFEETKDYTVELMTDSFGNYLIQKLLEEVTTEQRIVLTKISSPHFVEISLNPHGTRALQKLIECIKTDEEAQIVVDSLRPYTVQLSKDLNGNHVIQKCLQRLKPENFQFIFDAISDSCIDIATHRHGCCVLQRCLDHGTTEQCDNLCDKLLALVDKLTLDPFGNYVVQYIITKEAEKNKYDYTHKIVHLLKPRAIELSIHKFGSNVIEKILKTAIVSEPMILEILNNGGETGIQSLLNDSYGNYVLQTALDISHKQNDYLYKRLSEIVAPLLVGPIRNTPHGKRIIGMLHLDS

B1: Ic_S2_P4E.1_K4.1_C4.1_H4.1_A4.1_[T5A]_[A6T]_F4.1_[A9T]_T4.1 (ssRNA)
RNA: UUUGAUUAAUAUGAUAUCGUUCUUUCUUGUAAUUUUUUCUUUCUCGAUAUCAUAUUAAUCUUU
B2: Ic_S2_P4E.1_K4.1_C4.1_H4.1_A4.1_[A6G]_F4.1_[T8A]_[A9T]_T4.1 (ssRNA)
RNA: B1 RNA with A32U, U33G, U35A
B3: Ic_S2_P4E.1_K4.1_C4.1_H4.1_A4.1_[A6G]_F4.1_[T8G]_[A9T]_T4.1 (ssRNA)
RNA: B1 RNA with A32U, U33G, U35G
B4: Ic_S2_P4E.1_K4.1_C4.1_H4.1_A4.1_[A6C]_[T7A]_F4.1_[T8A]_[A9C]_T4.1 (ssRNA)
RNA: B1 RNA with A32U, U33C, U34A, U35A, U36C
B5: Ic_S2_P4E.1_K4.1_C4.1_H4.1_A4.1_[T5A]_[T7A]_F4.1_[T8C]_[A9C]_T4.1 (ssRNA)
RNA: B1 RNA with U33A, U34A, U35C, U36C
B6: Ic_S2_P4E.1_K4.1_C4.1_H4.1_A4.1_[A6C]_[T7C]_F4.1_[T8A]_T4.1 (ssRNA)
RNA: B1 RNA with A32U, U33C, U34C, U35A, U36A
B7: Ic_S2_P4E.1_K4.1_C4.1_H4.1_A4.1_[A6G]_[T7C]_F4.1_[T8A]_[A9T]_T4.1 (ssRNA)
RNA: B1 RNA with A32U, U33G, U34C, U35A
B8: Ic_S2_P4E.1_K4.1_C4.1_H4.1_A4.1_[T5A]_[T7C]_F4.1_[A9G]_T4.1 (ssRNA)
RNA: B1 RNA with U33A, U34C, U36G
B9: Ic_S2_P4E.1_K4.1_C4.1_H4.1_A4.1_[A6C]_[T7C]_F4.1_[T8G]_[A9T]_T4.1 (ssRNA)
RNA: B1 RNA with A32U, U33C, U34C, U35G
B10: Ic_S2_P4E.1_K4.1_C4.1_H4.1_A4.1_[A6C]_[T7A]_F4.1_[A9T]_T4.1 (ssRNA)
RNA: B1 RNA with A32U, U33C, U34A
B11: Ic_S2_P4E.1_K4.1_C4.1_H4.1_A4.1_[A6G]_[T7C]_F4.1_[T8A]_T4.1 (ssRNA)
RNA: B1 RNA with A32U, U33G, U34C, U35A, U36A
B12: Ic_S2_P4E.1_K4.1_C4.1_H4.1_A4.1_[T5A]_[T7C]_F4.1_[T8A]_T4.1 (ssRNA)
RNA: B1 RNA with U33A, U34C, U35A, U36A
B13: Ic_S2_P4E.1_K4.1_C4.1_H4.1_A4.1_[A6G]_[T7C]_F4.1_[T8G]_[A9G]_T4.1 (ssRNA)
RNA: B1 RNA with A32U, U33G, U34C, U35G, U36G
B14: Ic_S2_P4E.1_K4.1_C4.1_H4.1_A4.1_[A6G]_[T7C]_F4.1_[A9T]_T4.1 (ssRNA)
RNA: B1 RNA with A32U, U33G, U34C
B15: Ic_S2_P4E.1_K4.1_C4.1_H4.1_A4.1_[A6G]_[T7G]_F4.1_[T8C]_[A9G]_T4.1 (ssRNA)
RNA: B1 RNA with A32U, U33G, U34G, U35C, U36G
B16: Ic_S2_P4E.1_K4.1_C4.1_H4.1_A4.1_[A6C]_[T7A]_F4.1_[T8C]_[A9G]_T4.1 (ssRNA)
RNA: B1 RNA with A32U, U33C, U34A, U35C, U36G
B17: Ic_S2_P4E.1_K4.1_C4.1_H4.1_A4.1_[A6C]_[T7A]_F4.1_[T8C]_T4.1 (ssRNA)
RNA: B1 RNA with A32U, U33C, U34A, U35C, U36A
B18: Ic_S2_P4E.1_K4.1_C4.1_H4.1_A4.1_[A6C]_[T7C]_F4.1_[A9C]_T4.1 (ssRNA)
RNA: B1 RNA with A32U, U33C, U34C, U36C
B19: Ic_S2_P4E.1_K4.1_C4.1_H4.1_A4.1_[A6C]_[T7C]_F4.1_[T8C]_[A9T]_T4.1 (ssRNA)
RNA: B1 RNA with A32U, U33C, U34C, U35C
B20: Ic_S2_P4E.1_K4.1_C4.1_H4.1_A4.1_[A6G]_F4.1_[T8C]_[A9T]_T4.1 (ssRNA)
RNA: B1 RNA with A32U, U33G, U35C
B21: Ic_S2_P4E.1_K4.1_C4.1_H4.1_A4.1_[A6C]_[T7C]_F4.1_[T8G]_[A9C]_T4.1 (ssRNA)
RNA: B1 RNA with A32U, U33C, U34C, U35G, U36C
B22: Ic_S2_P4E.1_K4.1_C4.1_H4.1_A4.1_[T5A]_F4.1_[T8A]_[A9C]_T4.1 (ssRNA)
RNA: B1 RNA with U33A, U35A, U36C
B23: Ic_S2_P4E.1_K4.1_C4.1_H4.1_A4.1_[A6G]_[T7G]_F4.1_[T8C]_[A9T]_T4.1 (ssRNA)
RNA: B1 RNA with A32U, U33G, U34G, U35C
B24: Ic_S2_P4E.1_K4.1_C4.1_H4.1_A4.1_[A6C]_F4.1_[T8C]_[A9G]_T4.1 (ssRNA)
RNA: B1 RNA with A32U, U33C, U35C, U36G

Target: T1, PUF4 RNA-binding domain
Assay: Mg; RNA-MaP; 20 mM Na-HEPES pH 7.4, 30 mM KOAc, 0.75 mM MgCl2, 0.1% Tween-20, 5% glycerol, 0.1 mg/mL BSA, 2 mM DTT; 25 C; 0.0125-409.6 nM protein
Settings: tags: N-His6-TEV cleaved; C-SNAP kept, Cy3B-labelled; label: tethered on chip by stalled RNA polymerase

| Binder | Kd |
| --- | --- |
| UCUCUUUGUAUAUCCUCUCUU (ssRNA) [Ib_S1_P4E.1_K4.1_C4.1_H4.1_A4.1_F4.1_[T8C]_[A9C]_T4.1] | 18.9 nM |
| UCUCUUUGUAUAUGCUCUCUU (ssRNA) [Ib_S1_P4E.1_K4.1_C4.1_H4.1_A4.1_F4.1_[T8G]_[A9C]_T4.1] | 26.8 nM |
| UCUCUUUGUAUAUGGUCUCUU (ssRNA) [Ib_S1_P4E.1_K4.1_C4.1_H4.1_A4.1_F4.1_[T8G]_[A9G]_T4.1] | 47.2 nM |
| UCUCUUUGUAUAUGUUCUCUU (ssRNA) [Ic_S1_P4E.1_K4.1_C4.1_H4.1_A4.1_F4.1_[T8G]_[A9T]_T4.1] | 15.6 nM |
| UCUCUUUGUAUAUCGUCUCUU (ssRNA) [Ib_S1_P4E.1_K4.1_C4.1_H4.1_A4.1_F4.1_[T8C]_[A9G]_T4.1] | 26.1 nM |
| B1 | 22.4 nM |
| B2 | 26.9 nM |
| B3 | 17 nM |
| B4 | 309 nM |
| B5 | 385 nM |
| B6 | 369 nM |
| B7 | 155 nM |
| B8 | 18.3 nM |
| B9 | 149 nM |
| B10 | 3.46 nM |
| B11 | 239 nM |
| B12 | 57.8 nM |
| B13 | 1310 nM |
| B14 | 23.9 nM |
| B15 | 1670 nM |
| B16 | 228 nM |
| B17 | 347 nM |
| B18 | 27.5 nM |
| B19 | 166 nM |
| B20 | 57 nM |
| B21 | 800 nM |
| B22 | 23.4 nM |
| B23 | 619 nM |
| B24 | 23.6 nM |
